Molecular target: Histone H3 tail peptide H3K9MK14C with a C-terminal biotinylated lysine (fission yeast, C-terminal biotinylated lysine)
Experiment: BLI

t1/2: 9.6 s
B1: Clr4 SET domain (residue 190–490) (domain or fragment)
chain: NPSKLDSYTHLSFYEKRELFRKKLREIEGPEVTLVNEVDDEPCPSLDFQFISQYRLTQGVIPPDPNFQSGCNCSSLGGCDLNNPSRCECLDDLDEPTHFAYDAQGRVRADTGAVIYECNSFCSCSMECPNRVVQRGRTLPLEIFKTKEKGWGVRSLRFAPAGTFITCYLGEVITSAEAAKRDKNYDDDGITYLFDLDMFDDASEYTVDAQNYGDVSRFFNHSCSPNIAIYSAVRNHGFRTIYDLAFFAIKDIQPLEELTFDYAGAKDFSPVQSQKSQQNRISKLRRQCKCGSANCRGWLFG

Source: publication PMC8167812 (Cell reports, 2021)
